From the Human Domainome abundance scans (Beltran et al. 2025)

B1: Protein S100-G, residues 1 to 79; numbered along this chain, P02633 (parent)
chain: MSAKKSPEELKGIFEKYAAKEGDPNQLSKEELKLLLQTEFPSLLKGPSTLDELFEELDKNGDGEVSFEEFQVLVKKISQ

Variants of: B1
Assay: abundance fitness (aPCA) (normalised: wild type 0, dead -1); higher = more abundant; growth selection in yeast, the domain comes from the species named
Conditions: Bos taurus

Abundance fitness of substitutions, site by site:
S6: A -0.227, C -0.398, D -0.071, E -0.159, F -0.054, G -0.103, H -0.119, I -0.121, K -0.204, L -0.15, M -0.111, N -0.161, Q -0.076, R -0.232, T -0.03, V -0.203, W -0.372, Y -0.264
P7: C -0.021, D -0.119, E 0.037, F -0.066, G -0.121, H -0.067, K -0.062, L 0.013, M 0.058, N -0.056, R -0.079, S 0.02, T 0.066, V -0.058, W -0.09, Y 0.063
E8: A -0.054, C -0.361, D -0.125, F -0.079, G -0.049, H -0.148, I -0.029, K -0.004, L -0.029, M 0.014, N -0.11, P -0.163, Q 0.033, R -0.048, S -0.106, T -0.046, V -0.051, W -0.243, Y -0.101
E9: A -0.132, C -0.177, D 0.063, F -0.128, G -0.108, H -0.094, I -0.111, K -0.061, L -0.073, M -0.035, N -0.03, P -0.211, Q 0.055, R -0.179, S -0.073, T -0.073, V -0.062, Y -0.023
L10: A -0.09, C -0.536, D -0.322, E -0.202, F -0.048, H -0.155, I -0.039, K -0.401, M 0.044, N -0.31, P -0.383, Q -0.104, R -0.488, S -0.221, T -0.174, V -0.081, W -0.076, Y -0.038
K11: A -0.157, C -0.202, D -0.369, E -0.063, F 0.023, G -0.176, H -0.14, I -0.002, L -0.096, M -0.151, P -0.373, Q -0.04, R -0.185, T -0.197, W -0.294, Y -0.124
G12: D 0.067, E -0.165, F -0.01, H 0.064, I 0.088, K 0.029, L -0.009, M -0.002, N 0.001, P -0.048, Q -0.059, R 0.046, T 0.068, V 0.031, W -0.082, Y -0.045
I13: C -0.093, D -0.436, E -0.386, F -0.201, G -0.959, H -0.287, K -0.173, L -0.03, M 0.053, N -0.631, P -0.424, Q -0.219, R -0.409, S -0.26, T -0.17, V -0.123, W -0.231
F14: A -0.98, C -1, D -1.23, E -1.32, G -1.53, H -0.971, I -0.504, K -1.18, L -0.73, M -0.589, N -1.2, P -1.33, Q -1.29, R -1.37, S -1.22, T -1.33, V -0.729, W -0.088, Y 0.028
E15: A -0.039, C -0.152, D -0.047, F 0.016, G -0.062, H 0.018, I 0.078, K -0.031, M 0.058, N -0.042
